T1: human LAG-3 (His tag) (human, UniProt P18627 23-450, limits assumed)
T1 construct: also called LAG-3-His antigen; not shown: His tag
T1 sequence (looked up): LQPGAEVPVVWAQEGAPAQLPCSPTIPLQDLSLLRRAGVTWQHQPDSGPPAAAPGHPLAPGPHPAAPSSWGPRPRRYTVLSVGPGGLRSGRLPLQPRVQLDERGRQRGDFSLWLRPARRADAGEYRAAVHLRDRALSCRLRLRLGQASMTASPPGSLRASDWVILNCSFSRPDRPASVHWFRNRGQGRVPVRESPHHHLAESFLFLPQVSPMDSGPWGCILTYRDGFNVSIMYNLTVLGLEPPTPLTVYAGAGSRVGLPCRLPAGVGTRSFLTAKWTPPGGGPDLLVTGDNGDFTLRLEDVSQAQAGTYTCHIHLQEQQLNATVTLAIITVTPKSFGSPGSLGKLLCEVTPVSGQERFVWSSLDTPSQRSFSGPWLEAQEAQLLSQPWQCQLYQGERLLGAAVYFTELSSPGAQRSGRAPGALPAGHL

T2: human LAG-3 (Uniport entry No. P18627) (human, UniProt P18627 23-450, limits assumed)
T2 sequence (looked up): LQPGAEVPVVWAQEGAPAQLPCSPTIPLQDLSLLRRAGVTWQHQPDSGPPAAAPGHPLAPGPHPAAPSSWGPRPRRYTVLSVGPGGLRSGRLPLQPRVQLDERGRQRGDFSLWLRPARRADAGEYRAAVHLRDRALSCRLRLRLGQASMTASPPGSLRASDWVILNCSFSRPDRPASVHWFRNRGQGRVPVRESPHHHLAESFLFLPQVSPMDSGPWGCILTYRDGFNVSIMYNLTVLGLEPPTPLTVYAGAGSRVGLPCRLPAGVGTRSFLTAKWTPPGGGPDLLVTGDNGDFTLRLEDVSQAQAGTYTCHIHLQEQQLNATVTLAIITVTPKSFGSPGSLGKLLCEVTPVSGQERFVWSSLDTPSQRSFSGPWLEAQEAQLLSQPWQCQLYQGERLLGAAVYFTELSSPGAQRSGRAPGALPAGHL

T3: human LAG-3 on CHO cells (CHO-hLAG-3) (human, UniProt P18627 23-525)
T3 construct: whole, on cells; Cells prepared by Kelun Biotech Co., Ltd; also called CHO cells expressing human LAG-3
T3 sequence (looked up): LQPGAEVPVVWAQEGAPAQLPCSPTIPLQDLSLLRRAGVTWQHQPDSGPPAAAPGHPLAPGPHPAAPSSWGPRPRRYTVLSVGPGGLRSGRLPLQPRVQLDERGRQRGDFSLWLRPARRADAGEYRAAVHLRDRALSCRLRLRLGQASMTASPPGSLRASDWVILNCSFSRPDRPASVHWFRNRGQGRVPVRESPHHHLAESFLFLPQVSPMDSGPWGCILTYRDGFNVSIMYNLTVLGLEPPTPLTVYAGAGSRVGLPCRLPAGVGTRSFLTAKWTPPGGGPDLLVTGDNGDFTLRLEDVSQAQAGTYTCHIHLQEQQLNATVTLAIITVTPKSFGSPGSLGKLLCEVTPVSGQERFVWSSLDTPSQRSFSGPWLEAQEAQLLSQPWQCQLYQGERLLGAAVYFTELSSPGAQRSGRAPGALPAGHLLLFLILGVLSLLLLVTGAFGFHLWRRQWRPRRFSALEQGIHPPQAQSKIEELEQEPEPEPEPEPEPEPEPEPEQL


Tests used:
human LAG-3 (His tag) [1] = biological target: T1, human LAG-3 (His tag); test: BLI (ForteBio Octet), LAG-3 His on Ni-NTA sensor
Protocol: (§1) The binding affinity constant of the purified murine monoclonal antibody #27 to the antigen was determined by Bio-Layer Interferometry (BLI) using the instrument of a PALL company's ForteBio Octet RED & QK system.

human LAG-3 (His tag) [2] = biological target: T1, human LAG-3 (His tag); test: BLI (ForteBio Octet), LAG-3 His on Ni-NTA sensor, antibody 3.125-100 nM
Protocol: as §1

[3] = biological target: T2, human LAG-3 (Uniport entry No. P18627); test: indirect ELISA on plate-coated human LAG-3 (0.1 ug/ml), HRP goat anti-mouse IgG detection
human LAG-3 (His tag) [4] = biological target: T1, human LAG-3 (His tag); test: FACS competition, antibody blocks the binding of LAG-3-His (12 ug/mL) to MHC II positive A431 cells
Protocol: Human epidermal cancer cell line A431 (purchased from Nanjing Cobioer Company) is an MHC II positive expression cell line. […] The method was also used to evaluate the biological activity of relevant antibodies.
A431 cells were trypsinized, resuspended in PBS, and the cell density was adjusted to 5×10⁶ cells/mL, 100 μL/well. […] The cells were washed twice with pre-cooled PBS, resuspended in 100 µL of solution containing […] of PE anti-His, and incubated at 4° C. for 0.5 hours, washed twice with pre-cooled PBS, and resuspended in PBS.

[5] = biological target: T4, cynomolgus monkey LAG-3 on CHO cells (CHO-cynoLAG-3) (cynomolgus monkey); test: flow cytometry, FITC-labelled antibody on CHO-cynoLAG-3 cells
T4 construct: whole, on cells; Cells prepared by Kelun Biotech Co., Ltd
Protocol: (§2) 5×10⁵ cells per tube of CHO-cynoLAG-3 and CHO-hLAG-3 cells were taken respectively. […] The dilutions were mixed with cells at a ratio of 1:1, and incubated for 30 minutes at room temperature, followed by washing 3 times with pre-cooled PBS and detection by flow cytometry (Benckman, model CytoFlex). The signal values were input into GraphPad Prism to calculate the EC₅₀ values.

[6] = biological target: T5, LAG-3-Tag1 of the LAG-3/MHC II kit (CISBIO, ADK000CLAPEF) (human, UniProt P18627 23-450); test: HTRF competition, antibody blocks the binding of LAG-3-Tag1 to MHC II-Tag2 (CISBIO kit)
T5 construct: Kit reagent; The construct is not described
Protocol: Anti-Tag1-Eu³⁺ is a donor of HTRF (Homogeneous Time-Resolved Fluorescence), and anti-Tag2-XL665 acts as a receptor for HTRF. When the two molecules are close to each other, the fluorescence energy is transferred from the donor to the acceptor, accompanied by appearance of a fluorescent signal at 650 nm.
After mixing the anti-Tag1-Eu³⁺ and anti-Tag2-XL665 in equal volumes, each well was added with 10 μl, mixed well, sealed with a film, and incubated for 1 hour at room temperature.

[7] = biological target: T3, human LAG-3 on CHO cells (CHO-hLAG-3); test: flow cytometry, FITC-labelled antibody on CHO-hLAG-3 cells
Protocol: as §2

Kd (human LAG-3 (His tag) [1]) | koff (human LAG-3 (His tag) [1]) | kon (human LAG-3 (His tag) [1]) | Binder | further results
0.319 nM | 3.86e-05 s⁻¹ | 121000 M⁻¹ s⁻¹ | murine monoclonal antibody #27 (antibody, IgG4, V domains shown, Purified from hybridoma supernatant; also called murine antibody #27; monoclonal antibody produced by hybridoma cell line #27 (CCTCC NO.C2017183)) VH: DVHLQESGPDLVKPSQSLSLTCTVTGYSITSFYSWHWIRQFPGNKLEWMGCIQYSGDTDSNPSLKSRISITRDTSENQLFLHLNSVTTEDTATYYCARSPYDSDPYYVMDYWGQGTSVTVSS VL: DIVMSQSPSSLAVSVGEKITMTCKSSQSLLYSGNQKNYLAWYQQKPGQSPTLLIYWASTRDSGVPDRLTGSGSGTDFTLTISSVKAEDLAVYYCQQYYAYPYTFGGGTKLETK | Kd (human LAG-3 (His tag) [2]): 0.319 nM; koff (human LAG-3 (His tag) [2]): 3.86e-05 s⁻¹; kon (human LAG-3 (His tag) [2]): 121000 M⁻¹ s⁻¹; EC50 (read off the curve) [3]: ~0.05 µg/mL; IC50 (human LAG-3 (His tag) [4]): 10.4 nM; Maximum inhibition % (human LAG-3 (His tag) [4]): 84.2%
0.359 nM | 2.36e-05 s⁻¹ | 65800 M⁻¹ s⁻¹ | humanized antibody AB12T7 (antibody, human IgG4, kappa, V domains shown) VH: QVQLQESGPGLVKPSQTLSLTCTVSGYSITSFYSWSWIRQHPGKGLEWIGYIQYSGDTYYNPSLKSRVTISVDTSKNQFSLKLSSVTAADTAVYYCARSPYDSDPYYVMDYWGQGTLVTVSS VL: not shown | –
0.258 nM | 3.09e-05 s⁻¹ | 120000 M⁻¹ s⁻¹ | humanized antibody AB12T4 (antibody, human IgG4 S228P, kappa, V domains shown, also called FITC-AB12T4) VH: DVQLQESGPGLVKPSQTLSLTCTVTGYSITSFYSWHWIRQFPGKGLEWMGCIQYSGDTDSNPSLKSRITITRDTSENQLFLKLSSVTAADTATYYCARSPYDSDPYYVMDYWGQGTLVTVSS VL: DIVMSQSPDSLAVSLGERITMTCKSSQSLLYSGNQKNYLAWYQQKPGQSPTLLIYWASTRDSGVPDRLTGSGSGTDFTLTISSVQAEDVAVYYCQQYYAYPYTFGQGTKLEIKR | EC50 [7]: 12.8 nM; EC50 [5]: 803 nM; IC50 [6]: 6.7 µg/mL; IC50 (human LAG-3 (His tag) [4]): 12.7 nM; Maximum inhibition % (human LAG-3 (His tag) [4]): 89.3%

The next lines start with the binder.

Binder | Kd (human LAG-3 (His tag) [1]) | koff (human LAG-3 (His tag) [1]) | kon (human LAG-3 (His tag) [1]) | further results
human-mouse chimeric antibody AB12T2 (antibody, human IgG4 S228P, kappa, V domains shown) VH: DVHLQESGPDLVKPSQSLSLTCTVTGYSITSFYSWHWIRQFPGNKLEWMGCIQYSGDTDSNPSLKSRISITRDTSENQLFLHLNSVTTEDTATYYCARSPYDSDPYYVMDYWGQGTSVTVSS VL: DIVMSQSPSSLAVSVGEKITMTCKSSQSLLYSGNQKNYLAWYQQKPGQSPTLLIYWASTRDSGVPDRLTGSGSGTDFTLTISSVKAEDLAVYYCQQYYAYPYTFGGGTKLETKR | 0.574 nM | 4.97e-05 s⁻¹ | 100000 M⁻¹ s⁻¹ | –
reference antibody AB12T1 (BMS 986016) (antibody, human IgG4 S228P, kappa, V domains shown, also called positive control antibody AB; FITC-AB12T1) VH: QVQLQQWGAGLLKPSETLSLTCAVYGGSFSDYYWNWIRQPPGKGLEWIGEINHRGSTNSNPSLKSRVTLSLDTSKNQFSLKLRSVTAADTAVYYCAFGYSDYEYNWFDPWGQGTLVTVSS VL: EIVLTQSPATLSLSPGERATLSCRASQSISSYLAWYQQKPGQAPRLLIYDASNRATGIPARFSGSGSGTDFTLTISSLEPEDFAVYYCQQRSNWPLTFGQGTNLEIKR | – | – | – | EC50 [5]: 793 nM
humanized antibody AB12T3 (antibody, human IgG4, kappa, V domains shown) VH: DVQLQESGPGLVKPSQTLSLTCTVTGYSITSFYSWHWIRQHPGKGLEWMGCIQYSGDTDSNPSLKSRITITRDTSENQLSLKLSSVTAADTAVYYCARSPYDSDPYYVMDYWGQGTLVTVSS VL: DIVMSQSPDSLAVSLGERATITCKSSQSLLYSGNQKNYLAWYQQKPGQPPTLLIYWASTRDSGVPDRLTGSGSGTDFTLTISSLQAEDVAVYYCQQYYAYPYTFGQGTKLEIKR | 0.546 nM | 5.17e-05 s⁻¹ | 94700 M⁻¹ s⁻¹ | IC50 [6]: 9.45 µg/mL
humanized antibody AB12T5 (antibody, human IgG4, kappa, V domains shown) VH: QVQLQESGPGLVKPSQTLSLTCTVSGYSITSFYSWHWIRQHPGKGLEWIGCIQYSGDTDSNPSLKSRVTISVDTSKNQFSLKLSSVTAADTAVYYCARSPYDSDPYYVMDYWGQGTSVTVSS VL: DIVMTQSPDSLAVSLGERATITCKSSQSLLYSGNQKNYLAWYQQKPGQPPKLLIYWASTRDSGVPDRFSGSGSGTDFTLTISSLQAEDVAVYYCQQYYAYPYTFGGGTKLEIKR | 0.365 nM | 2.28e-05 s⁻¹ | 92400 M⁻¹ s⁻¹ | –
humanized antibody AB12T6 (antibody, human IgG4, kappa, V domains shown) VH: DVQLQESGPGLVKPSQSLSLTCTVSGYSITSFYSWHWIRQHPGKGLEWMGCIQYSGDTYYNPSLKSRVTISVDTSKNQFSLKLSSVTAADTAVYYCARSPYDSDPYYVMDYWGQGTLVTVSS VL: DIVMSQSPDSLAVSLGERATITCKSSQSLLYSGNQKNYLAWYQQKPGQPPKLLIYWASTRDSGVPDRFSGSGSGTDFTLTISSLQAEDVAVYYCQQYYAYPYTFGGGTKLETKR | 0.378 nM | – | – | –
